Test results reported in US20260042806A1 (OXFORD NANOPORE TECHNOLOGIES, published 2026).
Changes are numbered by the printed parent chain. Names may count otherwise. No end group written: not given here. *: point of attachment. 4‑(fluorosulfonyl)phenylacetyl = O=C(Cc1ccc(S(=O)(=O)F)cc1)*; Benzoyl(3-SO2F) = O=C(c1cccc(S(=O)(=O)F)c1)*; Benzoyl(4-SO2F) = O=C(c1ccc(S(=O)(=O)F)cc1)*

T1: CsgG (preformed nonameric CsgG pore complexes of Example 2) (Escherichia coli, UniProt P0AEA2 16-277)
T1 construct: Tyr196 fits that numbering; also called CsgG nonameric channel
T1 sequence: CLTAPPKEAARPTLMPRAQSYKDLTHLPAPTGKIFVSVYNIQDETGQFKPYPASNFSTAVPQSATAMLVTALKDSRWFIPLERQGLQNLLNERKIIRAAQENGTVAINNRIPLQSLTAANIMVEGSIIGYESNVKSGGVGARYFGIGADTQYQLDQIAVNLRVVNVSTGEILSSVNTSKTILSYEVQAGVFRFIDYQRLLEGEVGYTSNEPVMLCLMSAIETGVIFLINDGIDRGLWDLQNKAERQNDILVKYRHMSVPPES

T2: CsgG-F56Q pore (ONLP20134) (Escherichia coli, UniProt P0AEA2 16-277)
T2 construct: Oligomeric pore purified from E. coli; also called CsgG-WT-F56Q; CsgG-only pore control
T2 sequence: T1 sequence with F56Q

B1: CsgF-K30-PARA-SO2F-del(S31-F119) (peptide)
peptide: GTMTFQFRNPNFGGNPNNGAFLLNSAQAQK(Benzoyl(4-SO2F))-NH2
modifications: N-terminus assumed
SMILES: CSCC[C@H](NC(=O)[C@@H](NC(=O)CN)[C@@H](C)O)C(=O)N[C@H](C(=O)N[C@@H](Cc1ccccc1)C(=O)N[C@@H](CCC(N)=O)C(=O)N[C@@H](Cc1ccccc1)C(=O)N[C@@H](CCCNC(=N)N)C(=O)N[C@@H](CC(N)=O)C(=O)N1CCC[C@H]1C(=O)N[C@@H](CC(N)=O)C(=O)N[C@@H](Cc1ccccc1)C(=O)NCC(=O)NCC(=O)N[C@@H](CC(N)=O)C(=O)N1CCC[C@H]1C(=O)N[C@@H](CC(N)=O)C(=O)N[C@@H](CC(N)=O)C(=O)NCC(=O)N[C@@H](C)C(=O)N[C@@H](Cc1ccccc1)C(=O)N[C@@H](CC(C)C)C(=O)N[C@@H](CC(C)C)C(=O)N[C@@H](CC(N)=O)C(=O)N[C@@H](CO)C(=O)N[C@@H](C)C(=O)N[C@@H](CCC(N)=O)C(=O)N[C@@H](C)C(=O)N[C@@H](CCC(N)=O)C(=O)N[C@@H](CCCCNC(=O)c1ccc(S(=O)(=O)F)cc1)C(N)=O)[C@@H](C)O
notes: Synthetic peptide: WT CsgF(1-29) with a modified Lys at position 30; also called 4-SO2F-CsgF; CsgF-WT-K30-PARA-SO2F-del(S31-F119)
B2: CsgF-K30-META-SO2F-del(S31-F119) (peptide)
peptide: GTMTFQFRNPNFGGNPNNGAFLLNSAQAQK(Benzoyl(3-SO2F))-NH2
modifications: N-terminus assumed
SMILES: CSCC[C@H](NC(=O)[C@@H](NC(=O)CN)[C@@H](C)O)C(=O)N[C@H](C(=O)N[C@@H](Cc1ccccc1)C(=O)N[C@@H](CCC(N)=O)C(=O)N[C@@H](Cc1ccccc1)C(=O)N[C@@H](CCCNC(=N)N)C(=O)N[C@@H](CC(N)=O)C(=O)N1CCC[C@H]1C(=O)N[C@@H](CC(N)=O)C(=O)N[C@@H](Cc1ccccc1)C(=O)NCC(=O)NCC(=O)N[C@@H](CC(N)=O)C(=O)N1CCC[C@H]1C(=O)N[C@@H](CC(N)=O)C(=O)N[C@@H](CC(N)=O)C(=O)NCC(=O)N[C@@H](C)C(=O)N[C@@H](Cc1ccccc1)C(=O)N[C@@H](CC(C)C)C(=O)N[C@@H](CC(C)C)C(=O)N[C@@H](CC(N)=O)C(=O)N[C@@H](CO)C(=O)N[C@@H](C)C(=O)N[C@@H](CCC(N)=O)C(=O)N[C@@H](C)C(=O)N[C@@H](CCC(N)=O)C(=O)N[C@@H](CCCCNC(=O)c1cccc(S(=O)(=O)F)c1)C(N)=O)[C@@H](C)O
notes: Synthetic peptide: WT CsgF(1-29) with a modified Lys at position 30; also called 3-SO2F-CsgF; CsgF-WT-K30-META-SO2F-del(S31-F119)
B3: CsgF-del(S31-F119) (peptide)
peptide: GTMTFQFRNPNFGGNPNNGAFLLNSAQAQN
notes: Chemically synthesised peptide; In complex ONLP20783 with CsgG-F56Q; also called CsgF-WT-del(S31-F119); del(S31-F119) CsgF peptide
B4: CsgF-K30-CH2-PH-P-SO2F-del(S31-F119) (peptide)
peptide: GTMTFQFRNPNFGGNPNNGAFLLNSAQAQK(4‑(fluorosulfonyl)phenylacetyl)-NH2
modifications: N-terminus assumed
SMILES: CSCC[C@H](NC(=O)[C@@H](NC(=O)CN)[C@@H](C)O)C(=O)N[C@H](C(=O)N[C@@H](Cc1ccccc1)C(=O)N[C@@H](CCC(N)=O)C(=O)N[C@@H](Cc1ccccc1)C(=O)N[C@@H](CCCNC(=N)N)C(=O)N[C@@H](CC(N)=O)C(=O)N1CCC[C@H]1C(=O)N[C@@H](CC(N)=O)C(=O)N[C@@H](Cc1ccccc1)C(=O)NCC(=O)NCC(=O)N[C@@H](CC(N)=O)C(=O)N1CCC[C@H]1C(=O)N[C@@H](CC(N)=O)C(=O)N[C@@H](CC(N)=O)C(=O)NCC(=O)N[C@@H](C)C(=O)N[C@@H](Cc1ccccc1)C(=O)N[C@@H](CC(C)C)C(=O)N[C@@H](CC(C)C)C(=O)N[C@@H](CC(N)=O)C(=O)N[C@@H](CO)C(=O)N[C@@H](C)C(=O)N[C@@H](CCC(N)=O)C(=O)N[C@@H](C)C(=O)N[C@@H](CCC(N)=O)C(=O)N[C@@H](CCCCNC(=O)Cc1ccc(S(=O)(=O)F)cc1)C(N)=O)[C@@H](C)O
notes: Synthetic peptide: WT CsgF(1-29) with a modified Lys at position 30; also called 4-CH2SO2F-CsgF; CsgF-WT-K30-CH2PH-p-SO2F-del(S31-F119)

Experiments:
[1] = biological target: T1, CsgG (preformed nonameric CsgG pore …); experiment: SDS-PAGE time course of the reaction with CsgG
[2] = biological target: T1, CsgG (preformed nonameric CsgG pore …); experiment: insertion of complexes into bilayers; told of the covalent SuTide complexes as a group
[3] = biological target: T2, CsgG-F56Q pore (ONLP20134); experiment: single-channel current traces, MinION flow cell, -180 mV

Row | Binder | first order rate constant k1 of covalent reaction [1] | halftime (t1/2) of covalent complex formation [1] | fold increase in the proportion of bilayer embedded stable complexes over the non-covalent complex [2] | binding result [3]
1 | B1 | ~0.46 h⁻¹ | 1.5 h | 2 fold | 
2 | B2 | ~1 h⁻¹ | 0.66 h | 2 fold | 
3 | B3 |  |  |  | binds
4 | B4 | ~0.17 h⁻¹ | 4 h | 2 fold | 
